Experimental data published in PMC6028546, “Control of mitotic chromosome condensation by the fission yeast transcription factor Zas1”.
Each block holds one molecule with its values, some of them ahead of it.

Columns and labels:
[1] = molecular target: Zas1 (recombinant, from the short zas1 cDNA ORF) (S. pombe); test: SEC-MALS; analytical SEC coupled to multiangle light scattering of purified Zas1; two independent chromatography runs
[2] = molecular target: T1, Zas1 (short cDNA ORF, two zinc fingers) (Schizosaccharomyces pombe, UniProt Q9UTS5-2 1-845); test: EMSA; 20 uM ZnCl2, 5 mM MgCl2; EMSA: 10 mM Tris-HCl pH 8.0, 125 mM NaCl, 5 mM MgCl2, 20 uM ZnCl2; 400 nM DNA, 0/200/400/800 nM Zas1; 90 min on ice; 1.8% agarose, Tris-acetate pH 8.7, 6 C; settings: protein: recombinant; chain copies: 2; label: 5' 6-FAM on strand 1; blunt
T1 sequence: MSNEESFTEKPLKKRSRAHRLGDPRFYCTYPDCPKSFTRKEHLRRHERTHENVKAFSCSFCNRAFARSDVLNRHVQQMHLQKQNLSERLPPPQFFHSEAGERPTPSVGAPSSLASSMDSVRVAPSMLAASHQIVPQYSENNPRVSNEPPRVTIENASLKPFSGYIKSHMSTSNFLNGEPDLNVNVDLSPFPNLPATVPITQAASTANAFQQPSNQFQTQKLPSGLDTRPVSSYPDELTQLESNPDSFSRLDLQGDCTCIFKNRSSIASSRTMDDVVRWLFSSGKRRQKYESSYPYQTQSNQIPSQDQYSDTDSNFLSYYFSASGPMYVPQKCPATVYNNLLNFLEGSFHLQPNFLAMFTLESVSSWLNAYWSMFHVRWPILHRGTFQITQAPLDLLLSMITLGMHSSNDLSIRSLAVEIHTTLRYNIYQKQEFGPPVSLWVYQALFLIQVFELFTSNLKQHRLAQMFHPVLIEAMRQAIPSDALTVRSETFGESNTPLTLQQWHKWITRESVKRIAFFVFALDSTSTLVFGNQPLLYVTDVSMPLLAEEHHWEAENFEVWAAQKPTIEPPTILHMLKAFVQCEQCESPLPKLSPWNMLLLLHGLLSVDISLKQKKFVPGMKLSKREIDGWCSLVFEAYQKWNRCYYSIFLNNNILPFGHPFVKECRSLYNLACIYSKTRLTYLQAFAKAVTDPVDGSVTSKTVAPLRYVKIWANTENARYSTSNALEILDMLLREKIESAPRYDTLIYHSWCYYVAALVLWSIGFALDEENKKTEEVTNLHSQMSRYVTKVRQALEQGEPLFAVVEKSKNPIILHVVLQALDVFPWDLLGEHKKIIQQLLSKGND

stoichiometry N [1]: 2
Molecule: Zas1 (recombinant, from the short zas1 cDNA ORF) (natural protein)

B1: Pcnd1 (dsDNA)
DNA 1: AATGGACCCCCACACAGGACATATAGGTGGGGTTATTGT
DNA 2: ACAATAACCCCACCTATATGTCCTGTGTGGGGGTCCATT
binding result [2]: binds

B2: Ppob1 (dsDNA)
DNA 1: AAAGCCCCCACGAAGGTCGTCTTTCCCCACATAGATTATT
DNA 2: AATAATCTATGTGGGGAAAGACGACCTTCGTGGGGGCTTT
binding result [2]: binds
